Data reported in the NTF2 design screens of Basanta et al. (2020).

Experiment: protease stability score; higher = more stable; yeast display proteolysis, trypsin and chymotrypsin;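 note: relative to predicted unfolded state with 0 unfolded-like and 1 meaning tenfold more protease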

First: DELEDLAQKTHELFVQHYRTGDEDHLRHLLDPNAIMEIGDYHFIGREEILKFLVHWRIHRSEIKHLHVQGDKAEQEVEVDIEIGDKRFRTETHSIWIKINGKWFMHDFTVK
Second: SEEDEHSERALTLLNHLIMTGDFHDWERFFDPHVRFVVNGVEFHGREDVVRFLLELLERFKNVKIEMESWEIQGDKITSHYHEHVNGVRIERTVIMRKFNGRWFIQEVRFN
The protease stability score of the first is higher: 2.17 for the first, 0.281 for the second.

Compared with “DEERERREDETRLLLEILITGDEDRFRQLADPHMKLHIGDKDFIGREVAVKFLRDLWREFGIKHILFEDSTIVGDKLEHRMHLEVNGKRRRMELENVIIDGRVHSMHIRIH”, “DETHEMNEEFLRLLIHAWRTGDEDLLLHLADPNVKVNVGEFHHHGREKFSEWLKHIRFDDMRVHDMRIFDGVAHFITESDVTFNGRRRRVHVRIVVEKVNGKWRLKLFEEE” is higher in protease stability score: 1.39 for the first, 2.66 for the second.

Going from “DEEEKATHEAIEEIIETLRTGDEHIMRELMDPHVKVVQGDKEHHGRESFIKWMRLWFERAGVDQIDMRIKDHDSQGEKITLDGSLYVNGVEIDTHIISHKINGRWLNRSVIIQ” to “DDEEHSAENFARHFMENLRTGDEDRLHELADPNMQIILHFDGQHEVRHGWESYEYLVRLFGVKHIHINHFEIFYVNGRVHLRIEGHIHQGDKYREVYIHIDINKVNGRWHVESVELRIH”, the protease stability score falls from 1.22 to 0.93.

Going from “EEEEEHMEHMMRLTLQLFKTGDEETFIDLLDPNVKVHINGVTVHGWDRLIRVKEMIDKEIRFRDFIIHHIRVVDGRAEMEGTVTGDVNGQSRIRDWRSILVVIDGKIKSISWQFN” to “DETEEEVREAIEKFIQDLHTGNWHAYNEMLDPNVRVIVGDKHLHGRERVLEWEEEFMRKVKGATYRIDHMDVIDGRINLHFRITIGDKSREFNVHSLKINGQWHTKEVRVNIL”, the protease stability score falls from 2.27 to 1.06.

First: DDKHEINRELTRLFFETWLTGDEDWFQKMLDPHVRVEVGDKRSHGREEAARMLREHFESLGIKHLEYKSIELQGDKTIIDGRLDVDGQTRNSKIKVLIIDGRLTHLHIKLE
Second: SEKQKLAEHFAKEFIHSLETGNEEFLEHLADPDTRLEVGDKEIHGMHHLSRWLHEHLHRYKNVRWSIEITSIEVQGDKIIIHGTLHLNIDGVEIRELIVIEIDVVNGRVKSEHRDKL
The protease stability score of the first is lower: 1.01 for the first, 1.38 for the second.

First: DHTEHDARLVMEIWLRILLTGDWETLEKMLDPHVRLQINIGDKRHTHHGREDFLKRLYDLIRELGVDHWTLDEKRVQGNKTRARVTMYVGDKSYDVEIILVAVNGRIREVTIEIH
Second: SDEERLLHELLHRVLHKRVTGDEESIWREIDPRARIDVNGRDVHGRDHFFEFIVKWMMHYGINHLEIKNQREIDGRIDVDFHEEVGDKRFHVRIIFHKINGRWHLTQEVFT
The protease stability score of the first is higher: 2.08 for the first, 1.19 for the second.

Compared with “TEDQEQLEQHIRELTHNWHTGDFDSLKKLFDPNVKLEIGDKEYHGRELAEKYIRDELRHLRIEHVENREWRLINGVIILHTRLVGNIDGQRVERDTEIYVKKFDGQWIIEIFRVH”, “DEEDEEFKRAMDDWIRAILTGDEQRVEELFDPNVRFQVNGKETVGRDFLIHYVREWRLDSKVDIKRSEVQGDKVRVDVTMKLTIDVNGQRIHDQHKVTIIAEKIDGRWEIKELIVH” is lower in protease stability score: 1.34 for the first, 0.676 for the second.

Compared with “SKEDEDFNERTREWLEILETGDWRKLARLLDPNVLNIVGDKEHHGREEVIKSFRTYLEKVPNMRFTTRRIRLQGDKVDLDGDLYFNGKEIKVRIFLVIYDGRVHSMEVREE”, “DEIEHEVERVVREWMRAYITGDEDTLQHLLDPHVLSVIDGVNIHGMENVTEYLRRHLEKIKNVQIEDMRIHRLDIQGNKLDLDTRLHITFNGVPEVLETRLILTKIDGKWWMHQVIIN” is higher in protease stability score: 1.09 for the first, 2.42 for the second.

Going from “DEREELLRRWTEEFLDVFHTGDPKETMDMVDPHARIIVIINGRTIEDHGWEHVKILLEQIRVHDFHLTDVRVVNGKVRIDGRYDGYVNGQRVDHHVIIINVVVDGRTHTLLIEIR” to “DEEKKEVNRIFELWARLFETGDEDSIHRLLDPNARLEVNGQEIHGRHNISRTFLEFKERFKGIKIELILREVRVIGDKVHIHSELRVNINGREESFETDIDLVVIDGKLHSFRFHVH”, the protease stability score rises from 0.804 to 2.48.

Going from “DELKRDADHAVELLHRVIHTGDEDTFVELIDPHVRLDFNGRELIGWEEVRKLMRDLGWEQIHYEIEDIKVYNGQVEIHSRVNINGRTHQSHYHIEKVNGRWILRHVEYE” to “SEIDREHHELLTLLVHLWLTGDWKTFKKYFDPNVRLHQGDFDDHGWEALEETERKHGIEIKDLELHEFHVQGEKIIINLHVVIRQGDKTYRKDMRITYVVVNGRVTSIRMEVR”, the protease stability score falls from 1.37 to 0.877.

First: DEQEEKLERMYKLWLELHRTGDEEILTELIDPTARLEVGDKSFHGREILIEWFHRELKRIDHKEVRERHIEIQGEWLHAEIEVIIIVNGREIRITTELIIVTINGKIKSINIKIR
Second: DEHRESLETALEIEIETMLTGDEDSFKRLADPHYRLDVNGVKYHGREAVRVYLEQFDYVEHIVSKDVLVQGDKVRWDVQLDGKYNGQRRRVRVDIISRKINGRWILEEIRIK
The protease stability score of the first is higher: 2.23 for the first, 0.748 for the second.

First: DEEEKEAREALEEFIRSVHTGDEDHMVWMFDPNTRIEVGDKKLHGRELAEEFAERWKKHIRLEDVNLTEVHVQGEKVHIRGILHGTVGDKEVRRESEVMMLKVDGRWFLHSIKFK
Second: SEHEDMFREMAELLLESLVTGDFRQLKRLADPHMRLKINGKDTHGREEFSRVFKELDDELGVDHIEIKHLRVQGDKIHIHGKMHFDGRWHERHVDVEIFNGVVRHHRVEIR
The protease stability score of the first is lower: 0.463 for the first, 1.3 for the second.

First: SDEERHAEFVSRRILHALRTGDWEILFKMADPNVKSTIGDKHHHGWEIMSDMYKKLWEDLGVKHLDLKRITYVDGVVHIDERIRIGDKTHNVELNFVVIDGVLRSVEVHVR
Second: DEKEHELTRMIRMIETLLRTGDFEELEKLMDPDVRLDIDGKHLVGRHDLREFFLELGVKHTDTKEIHVIGDKAFLHTEIHVDGRTTKVIIIMHKINGRWIITSTHIRHH
The protease stability score of the first is lower: 1.14 for the first, 1.47 for the second.

Going from “SEEEVQFRRFFEAFLHFWETGDEKMLKTLLDPHVKFTVHFENHRSHYHGREEFTKFLHELGVKHFELDRVRIEFQGDKIRIEIDGVLLYDGRFHESHIILIIVKVDGRWVIHQLHIQIE” to “DEERKDTKEAIERVRDTWRTGDEQDIFNNVDPNTRMIVGDKHHHGMEDVARLAFEWRVHDFRFHEVHSSEDHVILDGRVDGEINGRRINTKMILILLKIDGRWHIESIQYI”, the protease stability score falls from 2.15 to 0.805.

First: DEEEKEVHKFMDLLVRALETGDEDEFLSLVDPNARVEIGDKLLHGRESEHWLTEHIKKVAGVERFTHHIHLKDWTIFNGRVRVDGILHLDYGNFHVERRSDFIIYKVDGRWIMRSERVH
Second: DEHEHQADHMQEILIRSHETGDEDLIREFFDPHARLDIGDKHNIGRESIKRFIHELLRILGLDNITLRVRHKTIQGDKIITHLELEVNGKRLEVIIHNEKINGQWSVRKVEWR
The protease stability score of the first is lower: 0.185 for the first, 1.98 for the second.

Compared with “SEEQEHTREAMEVYLHLMHTGDWDRFRELVDPNVRMNINGVDLHGWEELTRFMEIFWRDLGFDHFKIHEMRIYGEKSHIRGESIIGDKSREVHIHVVIVNGRIKSEKFVET”, “SEEEEKIKKLHTDWLHLLLTGDEDRLKQLMDPHAKISIEQGDFHLDLHGREDIIEFYWEERHRIDHLDIRVRHIEVWNGKIITKEENRIDFNGRKHVTEVDLEIEIVDGKFRSLHIRIH” is higher in protease stability score: 0.83 for the first, 1.02 for the second.

Going from “SEDEEAVRRLIRMLVEWESTGDFESVLRLFDPHARYRIDGVDLHGRHAWERLYKEIRINSVRVKRIEMQGDKVHVDSRLRGEIDGRETDLEVEIIIRKVNGRWVIEEVRIH” to “SEDEEESEKFLRRLLQAYRTGDEDKLNELIDPNARMDVNGVDNHGWEEISRLLKELRVKHLILHDQKNYDGRAEMDTIVDGRFNGRDDRRKSIIIVIKIDGRWIIESLSIG”, the protease stability score falls from 2.2 to 1.1.

First: SDEEENLKEWVRLMYESARTGDEDSTSHLIDPNVRIHVNGRELHGRELVLEHLRRIDHVELRIHIREVETYDGRLKVEGELREIMIFNGKRVDLRIDTVFINLKVNGRWVLKEVHII
Second: DEEQKAADRVNQLHTESMLTGDEDEFKHLADPNTKFLINGVEFHGRDTLHRWLSEIRLHHHHFEVKHLNFYGDFVEVEGHVRLVFHVNGRRIDVSTRVRWIIEKVDGRWYVRQIHIN
The protease stability score of the first is lower: 1.34 for the first, 1.68 for the second.

First: SEDEEVLEWAIKIVILALKTGDEDLFRKLADPTMRTEINGVILHGWKEVLRSLKELRVHHVRIERVEVINGRVHVDSREDVEFNGVRYETITHLVIEKVDGRWLMHSLKVE
Second: SEMEDIAEEWAELILHLWHTGDEDKLWKLADPNTREHVNGRNLHGREEIVRIIVHEMVEMRIKFRPHDVRVQGDKVIIDGIKEIHIDGKEIRIRIEIVIVVINGRYHSSELTVH
The protease stability score of the first is higher: 2.06 for the first, 1.04 for the second.

First: TEMEKRAEHWARLMVDRLKTGDEEVLRKMMDPNTRLEIDGREFIGREEILKSWEELGIKHIIFRHIDIEIVDGVVHVHLDLHVRIGEKDTKIELRVTNEKINGRWVIRSIHIHDI
Second: DDENKFWKEFMDIWVRSLETGNEEELAKLIDPHARLHVNGVENHGREIVLKWFHHHLKHAGVDHRTFHDMRVFDGVNFIDGTLHVNGVTREIRLKVYVVNGVVESEEVRIH
The protease stability score of the first is higher: 1.69 for the first, 1.03 for the second.

Compared with “DEEEHEWRKVIHELLHAFMTGDWKRFLKLVDPHAKFLVDGQEMHGREVLKHYIDRIKNMRIEIRDETYDMVDGRMHSIFQLELTQGEYRHESYIEVIIKKFDGRWRVHEVDFEIR”, “DRQKEILRELMEMFLTIFETGDEERFWELADPHVRHVIDIGDKEIRRVGREEMLKVWEHLYREMRIHRITLKDVRLVNGVFHAHVKVDGEYNGQRRETEMDIELNVVNGRVKSLIIHIQ” is lower in protease stability score: 2.18 for the first, 1.89 for the second.

Compared with “DEEHEIIRKMFEIVKDMFKTGDEEITERLLDPNARIDIDGRDIVGRESVLWLFSQFKNLRHRDDRIDYQGNFVIVRGKLDINGRRVEIEIVAAKVDGRWILHSIKMQ”, “DEEEEHFRRLLERFLHFWRTGDEDDYHKLADPHARSEVIIGDFRIESHGRHALEIWLRYMGIDHIHLEDSDSQGNKVHVHMHVKVGDKEHHVIIILIVIDGRVHQLTISVRRT” is lower in protease stability score: 1.43 for the first, 1.13 for the second.

First: TEIEEHIREVSEILTDWIITGNEEMIEKLLDPHARVVIGDKEHHGREVVIRFLRHWRLHRFDHRSFILQGEKAILIGDMDGDINGQRINLHVEEIHIIVDGRLKILEVKYK
Second: DEDHEEVEKYLKLFMKISETGNEEDIKKMADPDTRVDIGDKRHHGMEEFLHFWSHWRIHSIDIKDIEVQGEKVIITGETDVTIDGRKLRMKIIIVALKVNGKWIHKSVKFE
The protease stability score of the first is higher: 2.7 for the first, 1.37 for the second.

Compared with “SEDQHELTTLLEHLLRIHRTGDFHTLERLMDPNTWTLVDGVWFVGREAVEYSNKLIKFTKRIEIDHFEIQGEKATIHGTYHSHYNGREFHIHVTTYYQKINGRWVLHSIEFR”, “SEEEEDAERAERLIFEYHRTGDERLFRELVDPNVRLRVGDKEYHGREDFLRIMLELRIDRMHLHEIRVVDGRVHSRTEVDGTWNGRKFLTETESIIIKINGRWVLHSFHFH” is higher in protease stability score: 1.38 for the first, 1.69 for the second.

First: TEEDRETEKFLRILQEVHRTGDWRRFDEFLDPNVRIHIGDKEYHGREEFTRFFKEMGIDHHEVKHYRLVDGQLDLDVTERFNGVTVKTKLITHKFDGRWLITEIRVK
Second: REEEELMKEIARRVIESHYTGDEDWWLELADPNVQVHVGDKRKVGREHALHLLHIFHKHLGVDHLHLRHVHVQGDWIEIEMDLNINGKIREMRVFVTVIDGRLDSINIDIK
The protease stability score of the first is lower: 1.19 for the first, 1.27 for the second.
